Test results taken from the DeepSol protein solubility set.

Experiment: soluble on expression in E. coli; label from the status in PepcDB or PDB records

| Sequence | soluble on expression in E. coli |
| --- | --- |
| MLLELPATNSALAIKSVLMAMTPNNDAILVVGERGHIINWQNDDNWQQLQSPVSVAITDVTILSDGSKVAVGHDGVILKVDSNSTTWRKVFTGKEITQFQIAQLKQQYQSLEQVILQTQDEDELEELTYQLDDLTFAIEDNQLELKSGPNKPLLSVTSTSNDTLFASGAYGILLSSKDKGETWQLVSNHLDNPDRFHLNTVIATADDQLYIVGENGMGFHSTDVGQTWSVMTLPYSGSLFGILANTVKTHTISTDDINSTKNKTQLVAFGLQGNIMVSLDGGGNWQHIKLPRSTSLLGGNFSKQGKVYLVGHGGVIVSFYPENLSTLTIKKHPSGAALSSVLVKDNSLILAGQFGISQWPIEAEELEHHHHHH | not soluble |
| MGSDKIHHHHHHMATLYLIEQGAEIGCDGERIVVRRAGEIIGSVPLVKVDDIVIFGNIGISTPAIKRLLDRSIEVTFMTVDGSYQGRLVGQVTAHVALRQAQYACAADSDRTLRLAQSFVEGKLRNQRALLQRFSRNRATPPAEALAAADDLDAYIKRVRRTTRLSALLGVEGSATARYFAGLRSLIEPEWDFRSRQRRPPPDPVNLLLSFGYTLLTHKTLGAVQAAGFDPYLGFLHSLDYGRPSLALDLMEEFRPLLIDSLVVRVCNDGRLRLEHFQPGDEARPVIITDEGKRAFLTAFEERMRTEATHPEGADSGPGKVTYQRCIALQARRLARVIRGQQERYEPFTAR | not soluble |
| MSNTIRLSGIAYESLVNGPGIRRVFFSQGCKHNCIGCFNPDTHDFNGGEERDIEELIKDLADNPFIDGVTFSGGDPLEQANKFIYIAKAARELGLNIWSYTGYKFEYLLEHANEFNKWKEYLENIDVLVDGKFDINKKEDGLKFRGSSNQRIINVKESLKEGKVIELEFLEHHHHHH | not soluble |
| MSLSLSHFRITRFQFARDRVIGDSQVRADDVNVAALELVSESGEVGLGFIQTLFNPLPDQQEIESVFEHEVWPSLKGNRAIALVHRVNRPRGGNQRAYSLPFHEAVQVALWDLAAKEAGLPLHVLLGSRRNRVKAYASGLDFHLDDDAFVSLFSHAASIGYSAFKIKVGHRDFDRDLRRLELLKTCVPAGSKVMIDPNEAWTSKEALTKLVAIREAGHDLLWVEDPILRHDHDGLRTLRHAVTWTQINSGEYLDLQGKRLLLEAHAADILNVHGQVTDVMRIGWLAAELGIPISIGNTFLEAGVHMAVALPEVEWLEYSFQNFDHLVEQPIEIRDGYAYAPDRPGHGLVLSEKARGEWSRPRRLARSELGAAPENPRLPAKEGHHHHHH | soluble |
| MGSDKIHHHHHHMSQNVYIGMTLKPWPILLDHYSMSYDGRVSVKSIGYGMHLFKYHGCIMLATRTKVDSTMAYDTITVSAPWWAKDKLHSFLEDTRGDISTEPKVNIFEETEWCRYGILKSSGFSELVLDEGFKQELMGEVDNFASRGESVVSKLTILLHGKTGTGKTGIARALAVEYHRDLYILNLSTVNDATIHKAIRKVPPGAMLLIEDCDCVKATVSRTAESNADNPPLTLGGVLNALDGIIPLDDCLVIMTTNHPDNLDPALIRKGRVDVSIEVPLISAKQVNEDYFERFGAVLNRTEPLLGCEVYELHRRANLRYGVCCKPV | not soluble |
| MGSDKIHHHHHHMTDDSLFLIDVDKILRTKAPKQYKYIPKFVVSYLKKIVHQDEINVFLNESKDKLGVDFLEACMEFLDAKVEVKGIENLPKEGLYTFVSNHPLGGQDGVALGYVLGRHYDGKVKYLVNDLLMNLRGLAPLCVPINKTGKQAKDFPKMVEAGFQSDDQMIMFPAGLCSRRQNGVIRDLEWKKTFIIKSIQAKRDVVPVHFGGRNSDFFYNLANVCKALGIKFNIAMLYLADEMFKNRHKTFTVTFGKPIPWQTFDKSKTPAQWAEYVKDIVYKL | not soluble |
| MAEGQIIKALSGFYYVLSEGRVFQCRGRGVFRKKKVTPLVGDRVVFQATSETEGYILEIGERQNELVRPPIANVEQAILVFSAVSPDFSAKLLDRFLVLVESKRIAPIIVISKIDLLDGESKEEIARYVHDYRSIGYDVIETSAVTKGGLDELALRLRGRVSVVAGQSGVGKSSLLNALRPDLRLKTGDISTHLGRGKHTTRHVELLEVAGGLVADTPGFGALEFDQIELDELPHYFPEFRTYGEGCKFRGCLHIAEPKCAVREAVEAGEIPSYRYDHYVSFVAEMKERKPRY | not soluble |
| PLIAVFIGSILFDYRLAQETADTAYDHSLNNAALDIAAYIQTVGLSPKLRLTPEAEAMLRHDAVDKIFFAVRDSNKQLLIGDAQLPAYPGAIHKRPVFIDDVYQGEKIRATTQLIMVDANEITITVAETMREREHASNRIL | not soluble |
| MGSDKIHHHHHHVLIGLSALSFSYRCGLIGRGTPRAVSHPLDIEGVMALASRAGLQSVEFPLSLLPDLSPGRLSALRERLTLCGLTPVADSDIVDVDTLRAHIPAAAMIGAHVLRVLISPVLEGYRRPFTTDWPAHLADVTDRLRAVIDLAAEHNIILAVENHQDATSADLAAICAAVDSPHIGVCFDAVNCLVVGETPYAALERLGPLIRNVHLADYETYPTTQGWRLVRCALGEGDLDIRRLFHLIEHYAPDVACQIELVSHSARHVRILDDDWWQGYPPCDVREVLPVLRLFAQTMRLRDDDWRTPWERGAGEEQISLYEDQQYATSIAYLRTIGILPRL | not soluble |
| MSNPLAVDVPTFTKLHNVAQWLSQQPPSPRLFDQKENGFSQNFQPFLKTVNSCTIPDDLHEEMMRLKRKENAFKTALCKTFQLTRACSYGEQCKFAHSVEELQLKQKNRGVNHPKYKTVLCDNFSRTGHCKYGTKCQFIHRAVEPTPAQNPLMPQFSSWFAPSSGLSREFLDNFGASASSSSTDFS | not soluble |
| MEDIYYSPRYEDDEYEYRHVILPQAVSRKVPKGRLLSEAEWRRAGVQQSLGWEHYMVHNPEKHILLFRRKRHFTKADEERAKMELLRDMEVFNRAQQQTTATDEKLNAVFYEFVNKAV | not soluble |
| GPGSMKKNLLADRTARVFEEARESATRLAAVSDTVSRAAVPHGIRHLFYTADTQREQRQCLAKVFAATCPSLHPLRSGEGEAGDGESSDPTSAAAAAHQDYILLILPDCAKVEDFISHVLLPGQADALRILGSQDDARCTDYLVERLDHTVQVQQQQRRRAETRKFIQRTVRKAEALDGDVGYPSSAPQPSPLFRRLEREVNATAAPIHAAASESQAPAPTSLATSPAVCAADSLTASSSPLRPPRRCFITCNCNNVRGLDLPHLTHVVILAQPTTALEYAHWCGRVGRFGRPGVSVTLMARSATRHMHQFCDSLGIAFRVEKRHAEVDVNAERWLSGADAE | soluble |
| MDRGTVFTFSPKGDIIELPVGATALDFAFMVHTQVGCKCVGAKVNGRMVTIDHKLKSGDKVEIITSKNSKGPSLEHHHHHH | not soluble |
| MGSDKIHHHHHHMNETNFDWDDLRLFLAVAREGGLAAAAASTGKSAPTLGRRMLNLERRLGSDLFQRMARGYALTEDGQHLLAKAARLESLVLPITAIDPEQAIPVVKVSAGSWVTHLLCANVSEIIGSDRIRLRFIASDDVADIGRREALIGIRNHRPEGSGLAGRRITRVRFAVYARNRKVNTWARVIATTPSAKWVREEARTADAIEVTSPRNALDLALAGTARVVLPTFIGSQFDTLKQVSPLIGDLEHEQWLVTHHEDRFVPQVRKVIDRIYLILKQAKTSS | not soluble |
| MHHHHHHSSGRENLYFQGSTRGKVVLHTSLGDLDVELWARECPLACRNFVQLCLEGYYVNTIFHRVVKDFIVQGGDPTGTGRGGADTTFDGKPFDVETHPRLKFRYRGLVGVANLGRSSKDAENDERGRSLGTNGNQFFITLARADVLNNAYTLFGKVTGHTLYNLMKFNDLEVGKEDRPMTPPFIKSVDVLWNPFEDLVPRRLPDAPPAQKDERKRARAAGGRTTEGRARS | soluble |
| MIRELFEKEGFTLDEEQERKFSIYLQELLRWNKVHNLTSIKKPEEIVRRHFIDSVSVVRCFERIGLDLRGKHFADVGSGAGFPGVPLKIYLKDIKLTLIESVSKKCSFLEYLKIKLNEDYRVLCTRAEKVEEKFDVVLARALGEFEEVKEILEKLSIGYVFVYKGSKLKEEWLKDYKLCELSLSFMPKSYILWKKVLEHHHHHH | not soluble |
| MFISVVIPTYDRQPILEKCLRALEAQQLSASTVINEYEIVLVDDGSTDGTLDWLATHKEEFPHVRWFEQDHAGPAAARNLGVEKARGDIIIFIDSDLVVLDNFLQAHADALLQGQEKLGSDRFFTYGAVINTCNFDNPTAEPYKITDFSAAFFATGNVAIPKHWLEQAGLFDTGFQLYGWEDLELGVRLKNLGLQLIKCPAAVGYHWHPPFNLEQVPNLIEKEIQRGRMGVLFYKKHPTWEVRMMIQMTWLHRLLWGILSLNGALNENTMAPLLQWLIKSGKPQLALEIARIFLNWYNVKGVYQAYSQMQKVSLEHHHHHH | soluble |
| MTIGQVNGRARIKSECGKDQKCMPLEDKWLLVPAFLKVRGLVKQHLVSFDHFVQEEIRSIMLSNQKITSDANPNFYLKYLDIRIGKPSSEEGLNMTHDKITPQECRLRDMTYSAPISVDIEYTRGNQRVFKKDLIIGRMPIMLRSSKCILRDLAEEELARVQECPYDPGGYFVVKGSEKVILIQEQLSKNRIMVGRNSSKELQCEVLSSTSERKSKTYVTMKKGKYSVRHNQLTDDVPVSIIFKAMGVESDFDIVSTIGHEEKYVSAFAQTLEESINAGVYTQQQALAYVTSKVKARKFTPFGSLPGTSVSVLTPPKEHEAVDFLSNSMITHIACPDGNFKMKAIYLGLMTRRLIQTELGENGLDDRDFYGNKRLELAGSLLSLLFEDVFKRFNSELKRIADNALMKTMAAPLDIVKHMRQDMITNTIVNAMSTGNWIIKRFRMERLGVTQVLSRLSYISALGMMTRINSTFEKTRKVSGPRSLQPSQWGMLCPSDTPEGEACGLVKNLALISHITTDSDEKPVLRLLLNSGVEDLHNVHFSHVNKPENTLIFLNGVLIGTAVDPERVVKAVRDLRRSGLLSEFVSVSRSLTNRSVFISSDGGRLCRPYIIVKNGTPMLTQAHVQELKEGKMIFEDFVDDGIVEYLDVNEMNDALIAVYGREIGPETTHLEIEPFTLLGVCAGLIPYPHHNQSPRNTYQCAMGKQAMGTIAYNQQKRIDSIMYLLCYPQRPLVKSKTIELTNFEKLPAGANGIIAVMSYSGYDIEDALVLNKASLDRGYGRCLVYKHVKGTAKKYPNQTFDRLLGPALDPNTRKPIFKHKNLDQEGIVFAGARIMPKQTIINKHMPVVSGESGPGASASANTIGIAGRQVDYKDVSITYKTPTPSYAERVLLTYNEDEAHLFKVLLRQTRRPELGDKFSSRHGQKGVCGLIAQQEDMPFNDLGMVPDMIMNPHGYPSRMTVGKLMELLSGKAGVVNGTYHYGTAFGGDQVKDVCEELAACGYNYMGKDMLTSGITGQPLSAYIYFGPIYYQKLKHMVLDKMHARARGPRAALTRQPTEGRSREGGLRLGEMERDCLIAYGASMLLIERLMVSSDEFKVDVCTGCGVIGSKGWCQKCRSSKSMANIKIPYACKLLFQELQSMNIVPRLDLARYTE | not soluble |
| MSLTNKHPSLFSPFMLTEKIKLRNRIVMAPMTTWSANPDGTISEQELEFYKRRSQNVGLVITGCTYVTPSGIGFTHEFAAYDDRFINSLEKLAAAAKSGGAPAILQIFHAGNKAIPELVPNNDVISASASSVKSGDFMKRVVQSREMTENEIQETIRAFGDVTKRAIKAGFDGIELHGAHGFLLQNFFSPLFNQRNDRWGGDLEGRMRFPLAVLQEVKNVVYEYATKPFAIGYRISPEESATGGLRIEDTYKLLDRLISSGISYIHTSLVSINDSYPVESPNGPRTIELILNHIAGRVPVIAAGKIRTPSQAQEAISTGLPLVAIGKGLVINPEWVTLAESGRGHEIQTTLNPQLVPELTIPDKLWDQIQASKGEGHHHHHH | soluble |
